Consider 3 molecules from publication PMC8055526.

One assay addresses sFlt-1 (Homo sapiens) (UniProt P17948). Conditions: cited from earlier work.
Assay [1] concerns the target human VEGF (human) (UniProt P15692).
Assay [2] shares this target. This is another data set of the same source.
A further assay deals with mouse VEGF (mouse) (UniProt Q00731).

UniProt P17948, sequence (P17948 27-1338): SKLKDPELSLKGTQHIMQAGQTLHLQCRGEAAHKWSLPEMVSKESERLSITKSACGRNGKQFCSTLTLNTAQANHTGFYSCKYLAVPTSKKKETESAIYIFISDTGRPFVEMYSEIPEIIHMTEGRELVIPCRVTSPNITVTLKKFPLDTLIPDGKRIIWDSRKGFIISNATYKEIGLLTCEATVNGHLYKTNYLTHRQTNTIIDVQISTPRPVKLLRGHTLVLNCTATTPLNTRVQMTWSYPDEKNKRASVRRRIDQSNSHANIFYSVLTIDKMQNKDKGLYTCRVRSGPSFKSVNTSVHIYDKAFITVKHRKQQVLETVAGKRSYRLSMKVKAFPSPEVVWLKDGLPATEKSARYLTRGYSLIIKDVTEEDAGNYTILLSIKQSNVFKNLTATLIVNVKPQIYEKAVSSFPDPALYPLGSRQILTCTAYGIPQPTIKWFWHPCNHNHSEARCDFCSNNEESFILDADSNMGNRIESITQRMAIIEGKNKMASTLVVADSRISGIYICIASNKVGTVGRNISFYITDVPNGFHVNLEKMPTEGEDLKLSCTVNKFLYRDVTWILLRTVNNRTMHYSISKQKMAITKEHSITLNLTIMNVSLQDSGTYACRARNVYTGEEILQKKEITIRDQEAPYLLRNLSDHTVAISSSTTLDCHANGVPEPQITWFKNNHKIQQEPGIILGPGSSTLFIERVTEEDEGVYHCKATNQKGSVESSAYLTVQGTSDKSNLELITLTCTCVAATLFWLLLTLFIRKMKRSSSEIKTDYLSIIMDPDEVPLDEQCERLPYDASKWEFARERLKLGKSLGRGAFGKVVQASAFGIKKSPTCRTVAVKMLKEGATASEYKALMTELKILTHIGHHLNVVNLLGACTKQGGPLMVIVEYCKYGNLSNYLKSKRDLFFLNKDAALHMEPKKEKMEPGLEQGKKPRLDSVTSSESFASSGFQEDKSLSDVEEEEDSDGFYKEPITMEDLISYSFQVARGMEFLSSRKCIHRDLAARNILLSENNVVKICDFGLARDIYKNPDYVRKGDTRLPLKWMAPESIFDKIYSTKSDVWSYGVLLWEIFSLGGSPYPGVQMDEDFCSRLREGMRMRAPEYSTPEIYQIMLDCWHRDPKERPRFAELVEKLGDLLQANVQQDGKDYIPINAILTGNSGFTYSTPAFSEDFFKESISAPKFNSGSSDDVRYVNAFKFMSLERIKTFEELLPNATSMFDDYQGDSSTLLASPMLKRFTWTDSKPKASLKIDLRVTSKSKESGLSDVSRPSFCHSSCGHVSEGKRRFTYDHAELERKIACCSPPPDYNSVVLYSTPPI

Broadly, the Kd is the concentration at which binding is half-saturated. Turning to VEGF (from UniProt P15692), the Kd with sFlt-1 (Homo sapiens) is 0.03 nM. On to “human recombinant VEGFR-1/Flt-1 Fc chimera (from UniProt P17948-2 27-687) (Fc fusion)”, for which the VEGFR-2 phosphorylation in HUVECs with human VEGF, human sFlt-1 and a 4-fold molar excess of the antibody 21B3 (no letters) with human VEGF (human) [1] is 85 % of maximum. In the assay with human VEGF (human) [2], the VEGFR-2 phosphorylation in HUVECs with VEGF, human sFlt-1 and 2 times to 4 times molar excess of the antibody 27H6 is 89 % of maximum.

B1: mouse recombinant VEGFR-1/Flt-1 Fc chimera (Fc fusion)
chain: YGSGSKLKVPELSLKGTQHVMQAGQTLFLKCRGEAAHSWSLPTTVSQEDKRLSITPPSACGRDNRQFCSTLTLDTAQANHTGLYTCRYLPTSTSKKKKAESSIYIFVSDAGSPFIEMHTDIPKLVHMTEGRQLIIPCRVTSPNVTVTLKKFPFDTLTPDGQRITWDSRRGFIIANATYKEIGLLNCEATVNGHLYQTNYLTHRQTNTILDVQIRPPSPVRLLHGQTLVLNCTATTELNTRVQMSWNYPGKATKRASIRQRIDRSHSHNNVFHSVLKINNVESRDKGLYTCRVKSGSSFQSFNTSVHVYEKGFISVKHRKQPVQETTAGRRSYRLSMKVKAFPSPEIVWLKDGSPATLKSARYLVHGYSLIIKDVTTEDAGDYTILLGIKQSRLFKNLTATLIVNVKPQIYEKSVSSLPSPPLYPLGSRQVLTCTVYGIPRPTITWLWHPCHHNHSKERYDFCTENEESFILDPSSNLGNRIESISQRMTVIEGTNKTVSTLVVADSQTPGIYSCRAFNKIGTVERNIKFYVTDVPNGFHVSLEKMPAEGEDLKLSCVVNKFLYRDITWILLRTVNNRTMHHSISKQKMATTQDYSITLNLVIKNVSLEDSGTYACRARNIYTGEDILRKTEVLVRDSEAPHLLQNLSDYEVSISGSTTLDCQARGVPAPQITWFKNNHKIQQEPGIILGPGNSTLFIERVTEEDEGVYRCRATNQKGAVESAAYLTVQGTSDKSNLE
For the molecule B1, the VEGFR-2 phosphorylation in HUVECs with mouse VEGF, mouse sFlt-1 and a 10-fold molar excess of the antibody 21B3 (no letters) in the assay with mouse VEGF (mouse) is 85 % of maximum.
